System: Asp97
Assay: UV-vis
Conditions: 150 mM NaCl; 50 mM Tris-HCl; Dark/ground state, retinal-bound, detergent-solubilised purified protein

## HSG119 rhodopsin (blue-light absorbing proteorhodopsin homologue) (uncultured marine bacterium (metagenome sample HSG070119-03, seawater near King Sejong Station, King George Island, Antarctica))
  pKa: around 5.8 and 8.0
